In the supplement of paper PMC10567573:

B1: PCMTD2 (parent)
chain: FFIRTSDSFDKFDFCEPSFVTGNC

Variants of: B1
Assay: protein stability index of a GFP-peptide fusion (GPS, HEK-293T) (PSI 1-6); higher = more stable
Conditions: c terminus: a fixed tail appended
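Also: lentivirally expressed fusions sorted by FACS into six bins by GFP to DsRed ratio, PSI derived from sequencing read proportions per bin multiplied by bin number.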

Protein stability index of substitutions, site by site:
S6: Y 2.48 | K 2.59 | N 3.26 | H 2.91 | P 2.53 | G 2.33 | I 2.29 | F 2.43 | A 2.04 | M 2.53 | E 1.99 | C 1.99 | D 3.28 | Q 3.19 | W 2.61 | V 2.23 | T 3.34 | R 3.11
D10: L 2.67 | Q 2.54 | W 3.23 | C 3.08 | M 3.52 | R 2.56 | P 2.94 | F 3.53 | S 2.22 | E 2.27 | V 3.82 | H 2.83 | N 2.72 | G 2.61 | I 2.31 | T 2.81 | A 2.7 | K 3.06
P17: Y 3.1 | T 3.13 | S 2.03 | H 3.52 | D 1.47 | W 4.64 | K 2 | E 2.18 | A 2.74 | I 2.35 | C 2.42 | Q 2.51 | F 2.3 | V 4.75 | L 3.54 | N 2.05 | M 2.69 | G 2.03
F12: T 2.22 | M 2.05 | A 2.4 | W 3.92 | N 1.61 | K 1.99 | H 2.07 | E 1.92 | Y 2.79 | L 3.58 | S 1.71 | P 1.61 | Q 1.69 | G 2.05 | D 1.69 | V 2.47 | I 2.05 | C 2.74 | R 1.77
D13: T 3.18 | S 2.57 | Y 1.6 | C 2.21 | I 3.44 | G 2.78 | N 2.42 | E 2.74 | H 2.47 | M 2.65 | Q 3.23 | F 3.38 | K 2.85 | R 2.26 | V 3.37 | A 2.99 | P 2.4 | L 3.27
S8: W 4 | T 1.61 | M 1.94 | I 2.54 | Q 3.03 | K 1.72 | N 2.13 | H 3.25 | F 2.38 | Y 3.02 | C 3.14 | P 2.35 | L 3.06 | V 4.76 | R 2.44 | A 2.85 | D 1.95 | E 1.91
F9: A 1.95 | R 1.7 | V 1.75 | W 2.6 | Y 2.82 | T 1.7 | Q 1.92 | K 2.16 | S 1.66 | H 2.24 | L 2.12 | M 2.99 | I 2.47 | P 1.28 | G 2.53 | E 1.9 | D 2.03 | C 2.04 | N 2.18
C15: T 2.3 | I 3.14 | P 3.43 | Q 3.22 | K 2.43 | Y 3.03 | H 2.62 | D 2.14 | G 3.49 | S 2.04 | F 3.17 | L 3.34 | M 1.98 | E 2.06 | R 2.15 | V 2.05 | A 2.24 | N 2.98 | W 2.31
F2: Y 2.58 | W 3.73
F14: N 2.27 | I 2.31 | P 2.55 | Y 2.92 | A 2.31 | S 1.84 | M 2.1 | H 1.94 | E 2 | W 2.71 | V 2.05 | G 1.82 | Q 1.89 | R 2.37 | D 2.42 | K 1.99 | T 2.5 | C 2.76 | L 1.91
T5: A 3.25 | G 1.92 | Y 2.88 | S 3.67 | E 2.14 | K 2.38 | Q 1.78 | V 3.03 | L 2.48 | D 2.37 | I 3.08 | R 1.82 | H 2.39 | M 2.69 | W 2.53 | F 2.61 | N 1.75 | C 2.77 | P 3.1
I3: L 1.73 | G 2.18 | T 2.1 | C 1.81 | P 1.9 | Y 1.81 | D 2.56 | M 1.98 | H 2 | F 2.17 | V 2.18 | N 1.98 | Q 1.96 | R 2.45 | S 1.8 | E 2.04 | A 1.55 | K 2.07 | W 2.9
T21: A 2.61
V20: K 1.86 | A 2.2 | D 1.76 | I 2.54 | L 3.22 | E 2.26 | S 2.47 | C 2.37 | R 2.53 | N 2.73 | Y 1.91 | G 1.61 | Q 1.79 | T 2.58 | H 2.32 | F 3 | P 1.62 | M 2.5 | W 2.15
S18: R 2.39 | D 2.42 | G 2.81 | N 2.91 | L 4.02 | V 2.45 | W 3.1 | Y 2.11 | P 2.57 | E 2.4 | I 2.48 | F 2.02 | C 3.71 | T 2.54 | H 3.19 | M 3.36 | K 3.26 | A 1.76
D7: L 2.31 | F 3.74 | S 3.69 | H 1.69 | A 2.62 | V 2.77 | N 2.56 | C 2.8 | Y 2.41 | W 3.44 | K 1.88 | R 1.98 | I 3.18 | E 3.48 | T 3.2 | G 2.55
E16: P 1.87 | S 2.04 | C 2.5 | M 3.1 | N 2.95 | Q 2.02 | K 3.41 | Y 3.4 | F 2.04 | I 2.85 | D 2.87 | W 3.77 | H 3.4 | G 2.2 | R 2.11 | A 2.25 | V 2.9
R4: F 2.52 | M 4.34 | C 3.1 | G 1.31 | I 1.55 | V 2.33 | A 3.21 | S 2.39 | W 4.04 | D 2.08 | N 1.65 | H 2.45 | L 2.8 | P 1.85 | E 2.12 | T 3.27 | Y 2.93 | K 1.99 | Q 1.74
F19: G 2.16 | T 2.04 | W 3.83 | S 1.66 | H 1.25 | N 1.64 | Q 1.91 | K 1.95 | R 2.21 | V 2.06 | M 1.68 | A 1.69 | P 1.92 | L 2.26 | E 1.67 | I 3.34 | Y 1.67 | D 2.11 | C 1.49
K11: A 2.13 | Q 3.58 | P 2.72 | E 2.95 | H 2.24 | D 2.86 | W 3.22 | I 3.4 | N 2.42 | G 2.57 | S 3.53 | M 4.28 | C 2.65 | T 2.84 | F 3.16 | V 3.4 | Y 3.27 | L 2.42 | R 3.1
